Laboratory results reported in paper PMC9972897 (Science immunology, 2023).

How the values were obtained:
[1] = biological target: SARS-CoV-2 S-2P ectodomain trimer (ancestral) (SARS-CoV-2 (ancestral, MN908947), stabilised)
[2] = biological target: SARS-CoV-2 fusion peptide (FP) coldspot peptide, 812-831 (SARS-CoV-2 (ancestral), biotin-Ahx at the N-terminus; C-terminal amidation)

B1: hr2.090 (antibody, V domains shown)
VH: EVQLLESGGGLVQPGGSLRLSCAASGVTFSRYAMSWVRQAPGKGLEWVSTISGGGGGTYYADSVKGRFTISRDNSKNTLYLQMNSLRAEDTAVYYCATLLTVPGPYYFEYWGQGTLVTVSS
VL: EIVLTQSPGTLSLSPGERATLSCRASQSVSSSYLAWYQQKPGQAPRLLIYGASSRATGIPDRFSGSGSGTDFTLTISRLESEDFAVYYCQHSRFTFGPGTRVDIK
- binding result [1]: binds

B2: hr2.021 (antibody, V domains shown)
VH: QVQLVQSGAEVKKPGASVKVSCKASEAIFSGSYLHWVRQAPGQGLEWMGIITPSGDKTFYAQRFQGRLTMTRDTSTNTLHMHLSGLNSEDTAMYYCARQADKGGWDYWGQGTLVTVSS
VL: EIVLTQSPGTLSLSPGERATLSCRASQSVTSNYVAWYQQKPGQAPRLLIYGASTRATGIPDRFSGGGSGTDFTLTITRLEPEDFAVYYCQQYGSSPPTFTFGPGTKVDIK
- binding result [1]: binds

B3: hr2.024 (antibody, V domains shown)
VH: QVQLVQSGAEVKKPGASVKVSCKASEDIFTDSYLHWVRQAPGQGLEWMGIITPSGDKTFYAQQFQGRLTMTRDPSTNTLYMFLSGLRSDDTAMYFCARQAEKGGWDYWGHGTLVTVSS
VL: EIVLTQSPGTLSLSPGQRATLSCRSSQTITSNYLAWYQQRPGQAPRLLIYGASIRATGIPDRFSGSGSGTDFTLTISRLEPEDFAVYYCQQYGSSPPTFIFGPGTKVDIK
- binding result [1]: binds

B4: hr2.094 (antibody, V domains shown)
VH: EVQLVESGGGLVQPGGSLRLSCAASGFTFSTFWMTWVRQAPGKGLEWVANIKSDGSEKYYVDSVKGRFTISRDNAKNSLYLQMNSLRAEDTAVYYCATWFGLHWGQGTLVTVSS
VL: DIVMTQSPDSLAVSLGERASINCKSSQTVLYSSNNKNYLAWYQQKPGQPPKLLIHWASTRDSGVPDRFSGSGSGTDFTLTISSLQAEDVAVYYCQQYHRIPWTFGRGTKVEIK
- binding result [1]: binds

B5: hr2.025 (antibody, V domains shown)
VH: EVQLVQSGAEVKKPGESLKISCKGSGYSFTNYWIAWVRLMPGKGLEWMGFIFPGDSDTRYSPSFQGQVTISADKSISTAYLQWSSLKASDTAIYYCARRRGNSGNHDPYGMDVWGHGTTVTVSS
VL: not shown
- binding result [1]: binds

B6: fp.011 (antibody, V domains shown)
VH: EVQLLESGGGLVQPGGSLRLSCAGSGFTFNNYAMTWVRQAPGRGLEWVSAISGSGGSSHYADSVKGRFTITRDNSKNTLYLQMNSLRAEDTAVYYCAFIDYYSGWSYYYGLDVWGQGTTVTVSS
VL: EIVLTQSPATLSLSPGERATLSCRASQGVRTYVAWYQQKPGQAPRLLIYDASNRATGIPARFSGSGSGTDFTLTISSLEPEDFAVYYCQQRYNWPLCSFGQGTKLEIK
- binding result [2]: binds

B7: fp.004 (antibody, V domains shown)
VH: VQLVESGGGVVQPGTSLRLSCVASGFTFSNYAMHWVRQAPGKGLEWVAIISFDTRNTASAASVKGRFNISRDNSKNSLYLQMNSLRPEDTGVYYCARDLFLSDYDSRGYDPITGGFDCWGQGTLVTVSS
VL: EIVMTQSPAALSVSPGEGATLSCRASQSVGSRLAWYQQKLGRPPRLLIYGASTRATGIPARFSGSGSGTEFTLTISSLQSEDFAVYYCQQYNDWPLLTFGGGTKVKIK
- binding result [2]: binds
- binding result [1]: binds

B8: fp.002 (antibody, V domains shown)
VH: VQLVESGGGVVQPGTSLRLSCAGSGFNFDNYAIHWVRQAPGQGLEWVAIISYEARNKKYAGSVTGRFSISRDNSKSMVYLQMDSLRGEDTAVYYCARDLFLSDYDRSGYDPTRGGFDLWGQGTLVTVSS
VL: EIVMTQSPATLSVSPGERATLSCRASQSVSSSLAWYQHKLGQAPRLLIYGASTRATGIPGRFSGSGSGTEFTLTISSLQSEDVAIYYCQQYGDWPLVTFGGGTKVEIK
- binding result [2]: binds
- binding result [1]: binds

B9: fp.005 (antibody, V domains shown)
VH: VQLVESGGGVVQPGNSLRLSCAASGFRFNNYAMHWVRQAPGKGLEWVAIISYEARNEKYADSVKGRFSISRDNAKNTLYLQMNSLRADDTGVYYCARDLFLSDYDTSGYDRTRGGFDYWGQGALVTVSS
VL: EIVMTQSPATLSVSPGERATLSCRASQSVSNGLAWYQHRFGQPPRLLIYGASTRATGIPTRFSGSGSGTEFTLTISSLQSEDFAVYYCQQYDDWPLITFGGGTKVEIK
- binding result [2]: binds
- binding result [1]: binds

B10: fp.008 (antibody, V domains shown)
VH: VQLVESGGGVVQPGRSLRLSCRASGFRFNNYAMHWVRQAPGKGLEWVAIISYEARNEKYAASVKGRFSISRDNAKNTLYLQMNSLRPEDTAIYYCARDVFLSDYDQSGYDVTRGGFDYWGQGTLVTVSS
VL: EIVMTQSPATLSVSPGESATLSCRASQSVSSSLAWYQHKFGQAPRLLIYGASTRATGIPDRFSGSGSGMEFTLTISSLQSEDVAIYYCQQYGDWPLVTFGGGTKVEIK
- binding result [2]: binds
- binding result [1]: binds

B11: hr2.020 (antibody, V domains shown)
VH: EVQLVQSGAEVKKPGESLKISCKGSGYRFASHWIGWVRQMPGKGLQWMGIIYPGDSDTKYSPSFQGQVTISADKSINTVYLHWTSLKASDTAVYYCARRPPHLDGGDSPIRFDHWGQGTLVTVSS
VL: QSVLTQPPSASGTPGQRVTISCSGSRSNIGSNDVYWYQQFPGTAPKLLIYRNNQRPSGVPDRFSGSKSGTSASLAISGLRSEDEADYYCATWDDRLTGVFGGGTKLTVV
- binding result [1]: binds

B12: hr2.018 (antibody, V domains shown)
VH: EVQLVESGGGLVKPGGSLRLSCVASGSSVIDAWMNWVRQAPGKGLEWVGRIKSKTNGATTDYAAPVKGRFTISRDDSKNLSYLQMNSLKTEDTGIYYCTTSPLPNFDYWGRGTLVTVSS
VL: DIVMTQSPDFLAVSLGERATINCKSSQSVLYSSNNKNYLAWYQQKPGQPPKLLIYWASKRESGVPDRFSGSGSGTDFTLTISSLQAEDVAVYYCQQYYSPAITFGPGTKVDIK
- binding result [1]: binds

B13: hr2.019 (antibody, V domains shown)
VH: EVQLVESGGGLVKPGGSLRLSCAASGSSVIDVWMNWVRQAPGKGLEWVGRIKTKASGAATDYGAPVKGRFTISRDDSKNLSYLQMNSLRAEDTGIYYCTTSPLPNFDYWGRGTLVTVSS
VL: DIVMTQSPDFLAVSLGETATINCRSSQSVFYFANNKNYLAWYQQKPGQPPKLLIYWASKRESGVPDRFSGSGSGTDFTLTISSLQAEDVATYYCQQYSSPAITFGPGTKVDIK
- binding result [1]: binds

B14: hr2.014 (antibody, V domains shown)
VH: QVQLVQSGAEVKKPGASVKVSCKASGYTFTTYAVHWLRQVPGQRPEWIGWINAANGNTKYSEKFQGRVTITRDTSASTAYMDLRSLRSEDTAVYYCARLLVVRDDPYYYGMDVWGQGTTVTVSS
VL: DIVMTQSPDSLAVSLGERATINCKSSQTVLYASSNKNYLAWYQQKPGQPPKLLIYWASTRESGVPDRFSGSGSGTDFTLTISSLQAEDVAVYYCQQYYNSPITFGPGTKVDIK
- binding result [1]: binds

B15: hr2.017 (antibody, V domains shown)
VH: EVQLVESGGGLVQPGGSLRLSCAVSGFAFSSSWMHWIRQAPGRGLVWVSRINRDGSTTDYADSVKGRFTISRDNAKATLYLQMNSLRAEDTAVYYCATMGFDYWGQGALVTVSS
VL: DIVMTQSPDSLAVSLGERATINCKSSQNVLYSSNNKNHLSWYQQKPGQPPKLLIYWASTRKSGVPDRFSGSGSGTDFTLTINSLQAEDVAVYYCQQYFSTPNTFGQGTKLEIK
- binding result [1]: binds

B16: hr2.086 (antibody, V domains shown)
VH: EVQLLESGGGLVQPGGYLRLSCAASGFTFSSYAMSWVRQAPGKGLEWVSVISGGGGSAYYADSVKGRFTISRDNSKNTLYLQMNSLRAEDTAVYYCAKIGMILVFDYWGQGTLVTVSS
VL: EIVLTQSPGTLSLSPGERATLSCRASQSVSNNYLAWYQQKPGQAPRLLISGASSRATGIPDRFSGSGSGTDFTLTISRLEPEDFAVYYCQQYGSSPPTFGQGTKVEIK
- binding result [1]: binds

B17: fp.001 (antibody, V domains shown)
VH: VQLVESGGGVVQPGRPLRLSCSGSGFIFSNYAMHWVRQAPGKGLEWVAIISFDARNKRYADSVEGRFTISRDNSKNILYLQMNSLRLEDSAVYFCARDLFLSDYDNGVYDPTRGGFDYWGQGTLVTVSS
VL: EIVMTQSPATLSLSPGERATLSCRASQSVNNRLAWYQQKLGQPPRLLISGASTRATGIPARFTGSGSGTEFTLTISSLQSEDFAVYYCQQYHDWPLLSFGGGTKVEIK
- binding result [2]: binds
- binding result [1]: binds

B18: fp.003 (antibody, V domains shown)
VH: VQLVESGGGVVQPGTSLRLSCTASGFSFSNYAMHWVRQAPGKGLEWVAIISFDTRNKEFADSVKGRFSISRDNSKNSLNLQMNSLRPEDTGVYYCARDLFLSDYDSRGYEPSRGGFDYWGQGTLVTVSS
VL: EIVMTQSPATLSVSPGERATLSCRASQSVSSSLAWYQQKLGQPPRLLIYGASTRATGIPARFSGSGSGTEFTLTISSLKSEDSAVYYCQQYNDWPLLSFGGGTKVEIK
- binding result [2]: binds
- binding result [1]: binds

B19: hr2.012 (antibody, V domains shown)
VH: QVQLVQSGAEVKKPGASVKVSCKASGYTFTSHYIHWVRQAPGQGLEWMGIIKPSGGNTIYAQTFQGRVTMTRDTSTSTVYMELRSLTSDDTAVYYCARDQDHGLQRWGQGTLVTVSS
VL: QSVLTQPPSVSAPPGQKVTISCSGSSSNIGNNFVSWYQQLPGTAPKLLIYDNIERPSGIPDRFSGSRSGTSATLGITGLQTGDEADYYCGTWDTSLGAWVFGGGTKVTVL
- binding result [1]: binds

B20: hr2.013 (antibody, V domains shown)
VH: QVQLVQSGAEVKKPGASVKISCKASGYTFTNNYMNWVRQAPGQGLEWMGIIKPSSGSTIYAHKFQGRVTMTRDTSTSTVYMEVRSLTSEDTAVYYCARDQDHGLQNWGQGTLVTVSS
VL: QSVLTQPPSVSAASGQKVTIYCSGSSSNIASNFVSWYQQFPGTAPKLLIYDNNQRPSGIPDRFSGSRSGTSATLGITGLQTGDEADYYCGTWDTSLGAWVFGGGTKLTVL
- binding result [1]: binds

B21: hr2.015 (antibody, V domains shown)
VH: QVQLVQSGAEVKKPGASVKVSCKASGYTFSSYYVNWVRQAPGQGLEWLGIINRSGSSTIYAQKFQGRVTMTRDTSTSTVYLELSSLRSEDTAVYYCARDQDHALHWGQGTLVTVSS
VL: QSVLTQPPSVSAAPGQKVTISCSGSSSNIGSNYVSWYQQLPGTAPKLLIYDNSERPSGIPDRFSGSRSGTSATLGITGLQTGDEADYYCGTWDTSLSAWVFGGGTKLTVL
- binding result [1]: binds

B22: fp.010 (antibody, V domains shown)
VH: EVQLLESGGGLVQPGGSLRLSCAASGFTFSTYAMNWVRQAPGKGLEWVSAISSSGLSTQYADSVRGRFTISRDTSKNTLYLHMNSLRAGDTAVYYCAKVEYSGYDPRGPFDSWGQGTLVTVSS
VL: DIQMTQSPSTLSASVGDRVTITCRASQSISGWLAWYQQKPGRAPKLLIYKASSLERGVPSRFSGSGSGTEFTLTISSLQPDDFATYYCQEYSSYPLCTFGQGTKLEIK
- binding result [2]: binds
